# ± gives the standard deviation of the averaged measurements.
# What was measured:
# MCF7 = experiment: percentage of EdU-negative (G0-arrested) nuclei per well, 72 h; higher = more G0 arrest; settings: reference: sequence is the full UniProt precursor, the tested protein was the secreted form or ectodomain
# hTERT-HMEC = experiment: as above; settings: reference: sequence is the full UniProt precursor, the tested protein was the secreted form or ectodomain
# [1] = protein concentration 0.022665 µM
# [2] = protein concentration 0.03125 µM
# [3] = protein concentration 0.22665 µM
# [4] = protein concentration 0.3125 µM
# [5] = protein concentration 0.00742857 µM
# [6] = protein concentration 0.0225 µM
# [7] = protein concentration 0.0742857 µM
# 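Also: secreted proteins added to cultured cells, EdU pulse at the end, nuclei found by Hoechst imaging, EdU status from nuclear versus surrounding ring intensity ratio, PBS as neutral control.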
sequence,measurement,setting,value
MRRRRAGGRTMVERASKFVLVVAGSVCFMLILYQYAGPGLSLGAPGGRAPPDDLDLFPTPDPHYEKKYYFPVRELERSLRFDMKGDDVIVFLHIQKTGGTTFGRHLVQNVRLEVPCDCRPGQKKCTCYRPNRRETWLFSRFSTGWSCGLHADWTELTNCVPGVLDRRDSAALRTPRKFYYITLLRDPVSRYLSEWRHVQRGATWKTSLHMCDGRTPTPEELPPCYEGTDWSGCTLQEFMDCPYNLANNRQVRMLADLSLVGCYNLSFIPEGKRAQLLLESAKKNLRGMAFFGLTEFQRKTQYLFERTFNLKFIRPFMQYNSTRAGGVEVDEDTIRRIEELNDLDMQLYDYAKDLFQQRYQYKRQLERREQRLRSREERLLHRAKEALPREDADEPGRVPTEDYMSHIIEKW,percentage of EdU-negative,MCF7; protein concentration 0.01 µM,25.6 ± 0.82%
same,percentage of EdU-negative,MCF7; protein concentration 0.1 µM,28.9 ± 4%
same,percentage of EdU-negative,hTERT-HMEC; protein concentration 0.01 µM,5.25 ± 0.85%
same,percentage of EdU-negative,hTERT-HMEC; protein concentration 0.1 µM,31.7 ± 5.8%
MRSAAVLALLLCAGQVTALPVNSPMNKGDTEVMKCIVEVISDTLSKPSPMPVSQECFETLRGDERILSILRHQNLLKELQDLALQGAKERAHQQKKHSGFEDELSEVLENQSSQAELKEAVEEPSSKDVMEKREDSKEAEKSGEATDGARPQALPEPMQESKAEGNNQAPGEEEEEEEEATNTHPPASLPSQKYPGPQAEGDSEGLSQGLVDREKGLSAEPGWQAKREEEEEEEEEAEAGEEAVPEEEGPTVVLNPHPSLGYKEIRKGESRSEALAVDGAGKPGAEEAQDPEGKGEQEHSQQKEEEEEMAVVPQGLFRGGKSGELEQEEERLSKEWEDSKRWSKMDQLAKELTAEKRLEGQEEEEDNRDSSMKLSFRARAYGFRGPGPQLRRGWRPSSREDSLEAGLPLQVRGYPEEKKEEEGSANRRPEDQELESLSAIEAELEKVAHQLQALRRG,percentage of EdU-negative,MCF7; [1],24.2 ± 2.3%
same,percentage of EdU-negative,MCF7; [2],26.2 ± 1.6%
same,percentage of EdU-negative,MCF7; [3],24.9 ± 1.5%
same,percentage of EdU-negative,MCF7; [4],25.6 ± 1.5%
same,percentage of EdU-negative,hTERT-HMEC; [1],4.31 ± 0.57%
same,percentage of EdU-negative,hTERT-HMEC; [2],5.57 ± 0.62%
same,percentage of EdU-negative,hTERT-HMEC; [3],7.26 ± 0.12%
same,percentage of EdU-negative,hTERT-HMEC; [4],5.39 ± 0.89%
MRSLGALLLLLSACLAVSAGPVPTPPDNIQVQENFNISRIYGKWYNLAIGSTCPWLKKIMDRMTVSTLVLGEGATEAEISMTSTRWRKGVCEETSGAYEKTDTDGKFLYHKSKWNITMESYVVHTNYDEYAIFLTKKFSRHHGPTITAKLYGRAPQLRETLLQDFRVVAQGVGIPEDSIFTMADRGECVPGEQEPEPILIPRVRRAVLPQEEEGSGGGQLVTEVTKKEDSCQLGYSAGPCMGMTSRYFYNGTSMACETFQYGGCMGNGNNFVTEKECLQTCRTVAACNLPIVRGPCRAFIQLWAFDAVKGKCVLFPYGGCQGNGNKFYSEKECREYCGVPGDGDEELLRFSN,percentage of EdU-negative,MCF7; [5],27.22 ± 0.12%
same,percentage of EdU-negative,MCF7; [6],23.9 ± 0.98%
same,percentage of EdU-negative,MCF7; [7],26 ± 2.5%
same,percentage of EdU-negative,MCF7; protein concentration 0.225 µM,25.2 ± 1.6%
same,percentage of EdU-negative,hTERT-HMEC; [5],4.92 ± 0.19%
same,percentage of EdU-negative,hTERT-HMEC; [6],5.59 ± 1.2%
same,percentage of EdU-negative,hTERT-HMEC; [7],7.02 ± 1.1%
same,percentage of EdU-negative,hTERT-HMEC; protein concentration 0.225 µM,5.52 ± 0.57%
MRSLLLLSAFCLLEAALAAEVKKPAAAAAPGTAEKLSPKAATLAERSAGLAFSLYQAMAKDQAVENILVSPVVVASSLGLVSLGGKATTASQAKAVLSAEQLRDEEVHAGLGELLRSLSNSTARNVTWKLGSRLYGPSSVSFADDFVRSSKQHYNCEHSKINFRDKRSALQSINEWAAQTTDGKLPEVTKDVERTDGALLVNAMFFKPHWDEKFHHKMVDNRGFMVTRSYTVGVMMMHRTGLYNYYDDEKEKLQIVEMPLAHKLSSLIILMPHHVEPLERLEKLLTKEQLKIWMGKMQKKAVAISLPKGVVEVTHDLQKHLAGLGLTEAIDKNKADLSRMSGKKDLYLASVFHATAFELDTDGNPFDQDIYGREELRSPKLFYADHPFIFLVRDTQSGSLLFIGRLVRPKGDKMRDEL,percentage of EdU-negative,MCF7; [2],26.6 ± 2.3%
same,percentage of EdU-negative,MCF7; [4],27.2 ± 1.1%
same,percentage of EdU-negative,hTERT-HMEC; [2],4.8 ± 0.84%
same,percentage of EdU-negative,hTERT-HMEC; [4],7.55 ± 1%
MRTADREARPGLPSLLLLLLAGAGLSAASPPAAPRFNVSLDSVPELRWLPVLRHYDLDLVRAAMAQVIGDRVPKWVHVLIGKVVLELERFLPQPFTGEIRGMCDFMNLSLADCLLVNLAYESSVFCTSIVAQDSRGHIYHGRNLDYPFGNVLRKLTVDVQFLKNGQIAFTGTTFIGYVGLWTGQSPHKFTVSGDERDKGWWWENAIAALFRRHIPVSWLIRATLSESENFEAAVGKLAKTPLIADVYYIVGGTSPREGVVITRNRDGPADIWPLDPLNGAWFRVETNYDHWKPAPKEDDRRTSAIKALNATGQANLSLEALFQILSVVPVYNNFTIYTTVMSAGSPDKYMTRIRNPSRK,percentage of EdU-negative,MCF7; [6],25.7 ± 0.36%
same,percentage of EdU-negative,MCF7; protein concentration 0.225 µM,29.2 ± 3.5%
same,percentage of EdU-negative,hTERT-HMEC; [6],5.28 ± 0.13%
same,percentage of EdU-negative,hTERT-HMEC; protein concentration 0.225 µM,7.812 ± 0.044%
MRTIAILAAILLVALQAQAESLQERADEATTQKQSGEDNQDLAISFAGNGLSALRTSGSQARATCYCRTGRCATRESLSGVCEISGRLYRLCCR,percentage of EdU-negative,MCF7; [6],27.1 ± 0.85%
same,percentage of EdU-negative,MCF7; protein concentration 0.225 µM,25.5 ± 1.3%
same,percentage of EdU-negative,hTERT-HMEC; [6],4.85 ± 0.56%
same,percentage of EdU-negative,hTERT-HMEC; protein concentration 0.225 µM,5.716 ± 0.019%
MRTLTILTAVLLVALQAKAEPLQAEDDPLQAKAYEADAQEQRGANDQDFAVSFAEDASSSLRALGSTRAFTCHCRRSCYSTEYSYGTCTVMGINHRFCCL,percentage of EdU-negative,MCF7; [6],26.4 ± 0.96%
same,percentage of EdU-negative,MCF7; protein concentration 0.225 µM,26.4 ± 0.12%
same,percentage of EdU-negative,hTERT-HMEC; [6],4.63 ± 0.29%
same,percentage of EdU-negative,hTERT-HMEC; protein concentration 0.225 µM,5.921 ± 0.038%
